The assay has as its target α-Synuclein (UniProt P37840). As to the kind of experiment: cross-linking.

The source of these data is publication doi:10.1101/2022.04.20.488894.

The substance “α-Synuclein (from UniProt P37840 1-140) (natural protein)” came in with a P intra (intra-protein character) of the DSBU cross-link Lys-21 to Lys-32 of 77%.
